Laboratory results taken from patent US20240228599A1.

Target: cynomolgus monkey Factor B (cynomolgus monkey)
Experiment: ELISA; cynomolgus Factor B coated at 5 µg/mL, mAb in 3-fold dilutions from 10 µg/mL; EC50 by Prism according to the text, headed 'Binding Affinity (M)' on the sheet

EC50: 5.56 nM
B1: anti-factor Bb monoclonal antibody M12 (antibody, V domains shown)
VH: EVQLQQSGPELVKPGASVKMSCKASGYSFTDYLMNWVKQSHGKSLEWIGRINPYNGDAFYNQRFKGKATLTVDKSSSTAHMELRSLTSEDSALYYCARLENDYGFTYWGQGTLVTVSA
VL: DIVMTQAAFSNPVTLGTSASISCSSSKSLLHSNGITYLYWYLQRPGQSPQLLIYRMSNLASGVPDRFSGSGSGTDFTLRISRVEAEDVGVYYCAQMLERPWTFGGGTKLEIK
